Measurements reported in patent EP4786492A1.

B1: Hab008L3H5-hFc (scFv, part only; not given: scFv linker and human IgG1 Fc, V domains shown, not shown: another chain or arm of the molecule; a dimerising Fc or GST; small tags and cut ends)
VL: DIVMTQSPDSLAVSLGERATINCKASQNVGTAVAWYQQKPGQSPKLLIFSASIRYTGVPDRFSGSGSGTDFTLTISSLQAEDVAVYYCQQYSSSPYTFGGGTKVEIK
VH: EVQLVQSGAEVKKPGASVKVSCKASGYTFTDYYMNWVRRAPGQRLEWMGIINPYNGGTSYNQKFRGRVTITVDKSASTAYMELSSLRSEDTAVYYCSRYDYDYDVEGAMDYWGQGTTVTVSS
B2: Hab006VL4VH2-hFc (scFv, part only; not given: scFv linker and human IgG1 Fc, V domains shown, not shown: another chain or arm of the molecule; a dimerising Fc or GST; small tags and cut ends)
VL: DIVMTQSPDSLAVSLGERATINCRATKSISKYLAWYQQKPGQTNKLLIFSGSTLQSGVPDRFSGSGSGTDFTLTISSLQAEDVAVYYCQQHHEYPYTFGGGTKVEIK
VH: EVQLVQSGAEVKKPGASVKVSCKASGYTFTSYWMHWVRQAPGQRLEWMGVIDPSDSLANYNQEFKGRVTLTVDTSASTAYMELSSLRSEDTAVYYCARDSTVVAPMDYWGQGTTVTVSS

target: DLL3 endogenously expressed on NCI-H82 cells (UniProt Q9NYJ7); assay: FACS on NCI-H82 cells; antibody 4 nM
Sequence (Q9NYJ7 27-618): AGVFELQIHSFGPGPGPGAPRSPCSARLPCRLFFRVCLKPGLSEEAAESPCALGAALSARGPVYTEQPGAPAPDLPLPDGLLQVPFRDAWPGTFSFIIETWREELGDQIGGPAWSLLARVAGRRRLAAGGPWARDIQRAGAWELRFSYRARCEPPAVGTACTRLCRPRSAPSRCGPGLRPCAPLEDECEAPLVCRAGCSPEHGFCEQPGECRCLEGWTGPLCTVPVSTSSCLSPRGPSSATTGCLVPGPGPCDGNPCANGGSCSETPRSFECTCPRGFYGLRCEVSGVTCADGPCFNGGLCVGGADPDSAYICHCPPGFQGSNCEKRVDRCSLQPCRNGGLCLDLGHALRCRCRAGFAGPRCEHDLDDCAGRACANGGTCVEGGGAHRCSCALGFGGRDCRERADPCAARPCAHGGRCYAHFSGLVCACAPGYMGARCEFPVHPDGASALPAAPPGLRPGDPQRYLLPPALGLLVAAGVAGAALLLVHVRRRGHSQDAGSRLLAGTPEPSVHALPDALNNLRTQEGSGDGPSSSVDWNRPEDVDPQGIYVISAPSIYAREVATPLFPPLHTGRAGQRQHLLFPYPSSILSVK

Binder | MFI
B1 | 388

target: mouse DLL3 on CHO-K1-mDLL3 cells (mouse) (UniProt O88516); assay: FACS, CHO-K1-mDLL3 cells, 0.0064 nM antibody
Sequence (O88516 other isoform, or with tags, fused parts or gaps limits assumed): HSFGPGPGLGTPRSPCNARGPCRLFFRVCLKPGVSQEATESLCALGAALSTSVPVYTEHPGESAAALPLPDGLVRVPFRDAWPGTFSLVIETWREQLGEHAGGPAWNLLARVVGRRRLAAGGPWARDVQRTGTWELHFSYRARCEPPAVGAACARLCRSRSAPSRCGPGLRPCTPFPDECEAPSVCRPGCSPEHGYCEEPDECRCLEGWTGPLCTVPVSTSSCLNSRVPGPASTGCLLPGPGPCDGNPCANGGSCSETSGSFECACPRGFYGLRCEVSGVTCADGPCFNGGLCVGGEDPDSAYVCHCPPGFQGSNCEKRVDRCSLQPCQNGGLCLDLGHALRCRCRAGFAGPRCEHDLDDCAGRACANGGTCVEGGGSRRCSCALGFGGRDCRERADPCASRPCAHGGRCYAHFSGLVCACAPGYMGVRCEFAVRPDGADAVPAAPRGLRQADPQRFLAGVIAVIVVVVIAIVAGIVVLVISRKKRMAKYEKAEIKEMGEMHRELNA

Binder | MFI
B2 | 118 MFI

target: DLL3 endogenously expressed on NCI-H82 cells (UniProt Q9NYJ7); assay: FACS on NCI-H82 cells; antibody 100 nM

Binder | MFI
B1 | 1340

target: human DLL1 protein (Acro, Cat. No. DL1-H52H8) (human) (UniProt O00548); assay: ELISA, coated hDLL1; maximum over 0.1, 1, 10, 100 nM antibody
Sequence (O00548 18-540 limits assumed): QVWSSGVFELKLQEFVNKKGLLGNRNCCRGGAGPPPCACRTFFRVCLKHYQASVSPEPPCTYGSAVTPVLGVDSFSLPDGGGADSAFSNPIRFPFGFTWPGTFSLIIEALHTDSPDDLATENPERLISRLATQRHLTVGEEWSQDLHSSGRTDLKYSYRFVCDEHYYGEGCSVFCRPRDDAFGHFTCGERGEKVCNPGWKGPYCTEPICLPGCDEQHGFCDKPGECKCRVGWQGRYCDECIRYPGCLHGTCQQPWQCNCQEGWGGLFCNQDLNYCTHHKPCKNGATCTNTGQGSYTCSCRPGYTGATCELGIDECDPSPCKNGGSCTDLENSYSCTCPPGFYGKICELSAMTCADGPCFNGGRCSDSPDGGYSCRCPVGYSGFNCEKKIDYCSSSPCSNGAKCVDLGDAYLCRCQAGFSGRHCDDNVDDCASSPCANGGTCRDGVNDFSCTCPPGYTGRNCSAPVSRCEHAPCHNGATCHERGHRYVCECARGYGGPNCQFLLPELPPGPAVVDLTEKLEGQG

Binder | Emax of OD450 nm binding value
B2 | 0.05 OD450 nm
B1 | 0.11 OD450 nm

target: monkey DLL3 on CHO-K1-cyno DLL3 cells (cynomolgus monkey); assay: FACS, CHO-K1-cyno DLL3 cells, 20 nM antibody
Sequence (chain, as listed by the source limits assumed): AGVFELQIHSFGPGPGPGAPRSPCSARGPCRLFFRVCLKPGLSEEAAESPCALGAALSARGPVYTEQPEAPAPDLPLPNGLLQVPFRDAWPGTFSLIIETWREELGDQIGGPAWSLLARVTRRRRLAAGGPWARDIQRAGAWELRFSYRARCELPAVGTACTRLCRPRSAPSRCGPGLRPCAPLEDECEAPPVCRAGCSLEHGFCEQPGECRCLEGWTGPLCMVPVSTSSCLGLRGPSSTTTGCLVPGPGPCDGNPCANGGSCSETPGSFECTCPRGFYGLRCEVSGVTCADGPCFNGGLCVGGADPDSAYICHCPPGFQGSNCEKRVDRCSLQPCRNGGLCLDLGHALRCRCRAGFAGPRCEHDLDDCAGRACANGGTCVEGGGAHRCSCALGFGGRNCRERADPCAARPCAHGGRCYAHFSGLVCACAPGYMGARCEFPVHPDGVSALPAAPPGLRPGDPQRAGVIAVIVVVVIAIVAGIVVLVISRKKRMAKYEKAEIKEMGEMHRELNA

Binder | MFI
B2 | 9180 MFI
B1 | 20300 MFI

target: mouse DLL3 on CHO-K1-mDLL3 cells (mouse) (UniProt O88516); assay: FACS, CHO-K1-mDLL3 cells, 0.8 nM antibody

Binder | MFI
B2 | 495 MFI

target: human DLL3 protein expressed on CHO-K1 recombinant cells (human DLL3 extracellular segment fused to EpCAM transmembrane and intracellular regions) (human) (UniProt Q9NYJ7); assay: FACS, CHO-K1 hDLL3 cells, 4 nM antibody
Sequence (Q9NYJ7 other isoform, or with tags, fused parts or gaps limits assumed): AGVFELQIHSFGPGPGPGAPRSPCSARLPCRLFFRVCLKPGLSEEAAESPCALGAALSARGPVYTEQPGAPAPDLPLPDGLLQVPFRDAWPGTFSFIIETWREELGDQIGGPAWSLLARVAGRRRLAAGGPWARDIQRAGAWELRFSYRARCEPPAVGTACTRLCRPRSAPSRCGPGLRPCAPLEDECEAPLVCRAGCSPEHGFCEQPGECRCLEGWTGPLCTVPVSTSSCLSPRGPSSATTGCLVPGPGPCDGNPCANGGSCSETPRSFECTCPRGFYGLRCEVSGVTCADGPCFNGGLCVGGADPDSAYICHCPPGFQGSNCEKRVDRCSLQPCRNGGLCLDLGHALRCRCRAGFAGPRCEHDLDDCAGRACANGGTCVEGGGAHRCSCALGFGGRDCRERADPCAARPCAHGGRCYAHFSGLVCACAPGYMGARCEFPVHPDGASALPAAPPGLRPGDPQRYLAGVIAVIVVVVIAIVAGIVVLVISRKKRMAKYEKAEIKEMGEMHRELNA

Binder | MFI
B2 | 13800 MFI
B1 | 7140 MFI

target: mouse DLL3 on CHO-K1-mDLL3 cells (mouse) (UniProt O88516); assay: FACS, CHO-K1-mDLL3 cells, 0.16 nM antibody

Binder | MFI
B2 | 343 MFI

target: human DLL3 protein expressed on CHO-K1 recombinant cells (human DLL3 extracellular segment fused to EpCAM transmembrane and intracellular regions) (human) (UniProt Q9NYJ7); assay: FACS, CHO-K1 hDLL3 cells, 100 nM antibody

Binder | MFI
B2 | 15400 MFI
B1 | 8950 MFI

target: DLL3 endogenously expressed on NCI-H82 cells (UniProt Q9NYJ7); assay: FACS on NCI-H82 cells; antibody 0.032 nM

Binder | MFI
B1 | 91

target: mouse DLL3 on CHO-K1-mDLL3 cells (mouse) (UniProt O88516); assay: FACS, CHO-K1-mDLL3 cells, 100 nM antibody

Binder | MFI
B2 | 580 MFI

target: monkey DLL3 on CHO-K1-cyno DLL3 cells (cynomolgus monkey); assay: FACS, CHO-K1-cyno DLL3 cells, 0.16 nM antibody

Binder | MFI
B2 | 3970 MFI
B1 | 724 MFI

target: monkey DLL3 on CHO-K1-cyno DLL3 cells (cynomolgus monkey); assay: FACS, CHO-K1-cyno DLL3 cells, 0.0064 nM antibody

Binder | MFI
B2 | 494 MFI
B1 | 142 MFI

target: human DLL3 protein expressed on CHO-K1 recombinant cells (human DLL3 extracellular segment fused to EpCAM transmembrane and intracellular regions) (human) (UniProt Q9NYJ7); assay: FACS, CHO-K1 hDLL3 cells, 0.00128 nM antibody

Binder | MFI
B2 | 243 MFI
B1 | 100 MFI

target: monkey DLL3 on CHO-K1-cyno DLL3 cells (cynomolgus monkey); assay: FACS, CHO-K1-cyno DLL3 cells, 0.8 nM antibody

Binder | MFI
B2 | 7810 MFI
B1 | 3470 MFI

target: mouse DLL3 on CHO-K1-mDLL3 cells (mouse) (UniProt O88516); assay: FACS, CHO-K1-mDLL3 cells, 0.00128 nM antibody

Binder | MFI
B2 | 99 MFI

target: DLL3 endogenously expressed on NCI-H82 cells (UniProt Q9NYJ7); assay: FACS on NCI-H82 cells; antibody 0.0064 nM

Binder | MFI
B1 | 90

target: DLL3 endogenously expressed on NCI-H82 cells (UniProt Q9NYJ7); assay: FACS on NCI-H82 cells; antibody 0.8 nM

Binder | MFI
B1 | 152

target: human DLL3 protein expressed on CHO-K1 recombinant cells (human DLL3 extracellular segment fused to EpCAM transmembrane and intracellular regions) (human) (UniProt Q9NYJ7); assay: FACS, CHO-K1 hDLL3 cells, 0.0064 nM antibody

Binder | MFI
B2 | 458 MFI
B1 | 131 MFI

target: mouse DLL3 on CHO-K1-mDLL3 cells (mouse) (UniProt O88516); assay: FACS, CHO-K1-mDLL3 cells, 20 nM antibody

Binder | MFI
B2 | 605 MFI

target: human DLL3 protein (extracellular segment, His tag) (human) (UniProt Q9NYJ7); assay: SPR (Biacore 8K), antibody captured on Protein A chip, DLL3 antigen in solution, 1:1 Langmuir fit
Sequence (Q9NYJ7 27-492): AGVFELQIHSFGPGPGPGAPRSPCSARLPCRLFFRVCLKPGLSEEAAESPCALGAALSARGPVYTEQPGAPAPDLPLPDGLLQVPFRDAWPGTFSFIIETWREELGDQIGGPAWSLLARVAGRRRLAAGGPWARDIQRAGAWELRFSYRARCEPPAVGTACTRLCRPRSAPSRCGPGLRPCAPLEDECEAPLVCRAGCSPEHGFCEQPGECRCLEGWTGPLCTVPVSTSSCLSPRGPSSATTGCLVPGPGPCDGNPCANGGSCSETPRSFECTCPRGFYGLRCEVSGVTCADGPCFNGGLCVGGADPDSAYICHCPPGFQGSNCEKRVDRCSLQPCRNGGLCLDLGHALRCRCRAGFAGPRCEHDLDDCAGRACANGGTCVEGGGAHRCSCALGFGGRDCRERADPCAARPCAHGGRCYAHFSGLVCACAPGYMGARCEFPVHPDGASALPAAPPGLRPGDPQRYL

Binder | Kd | koff | kon
B2 | 0.395 nM | 0.000156 s⁻¹ | 394000 M⁻¹ s⁻¹
B1 | 0.902 nM | 0.000312 s⁻¹ | 345000 M⁻¹ s⁻¹

target: human DLL3 protein expressed on CHO-K1 recombinant cells (human DLL3 extracellular segment fused to EpCAM transmembrane and intracellular regions) (human) (UniProt Q9NYJ7); assay: FACS, CHO-K1 hDLL3 cells, 20 nM antibody

Binder | MFI
B2 | 14500 MFI
B1 | 8320 MFI

target: DLL3 endogenously expressed on NCI-H82 cells (UniProt Q9NYJ7); assay: FACS on NCI-H82 cells; antibody 20 nM

Binder | MFI
B1 | 674

target: human DLL4 protein (Acro, Cat. No. DL4-H5227) (human) (UniProt Q9NR61); assay: ELISA, coated hDLL4; maximum over 0.1, 1, 10, 100 nM antibody
Sequence (Q9NR61 27-524 limits assumed): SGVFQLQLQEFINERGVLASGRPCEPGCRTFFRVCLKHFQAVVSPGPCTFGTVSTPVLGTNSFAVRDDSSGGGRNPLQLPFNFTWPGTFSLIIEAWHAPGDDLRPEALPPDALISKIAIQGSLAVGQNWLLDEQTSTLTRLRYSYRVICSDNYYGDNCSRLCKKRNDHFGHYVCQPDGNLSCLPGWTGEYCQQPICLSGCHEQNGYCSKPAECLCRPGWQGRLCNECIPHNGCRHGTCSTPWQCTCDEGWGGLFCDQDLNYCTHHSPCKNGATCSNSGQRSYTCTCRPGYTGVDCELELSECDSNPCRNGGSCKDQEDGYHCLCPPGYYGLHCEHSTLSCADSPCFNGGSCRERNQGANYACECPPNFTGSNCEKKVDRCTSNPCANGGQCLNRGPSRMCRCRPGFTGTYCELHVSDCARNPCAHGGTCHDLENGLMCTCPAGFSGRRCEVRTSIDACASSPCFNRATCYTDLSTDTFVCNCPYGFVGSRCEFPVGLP

Binder | Emax of OD450 nm binding value
B2 | 0.06 OD450 nm
B1 | 0.18 OD450 nm

target: monkey DLL3 on CHO-K1-cyno DLL3 cells (cynomolgus monkey); assay: FACS, CHO-K1-cyno DLL3 cells, 0.032 nM antibody

Binder | MFI
B2 | 1340 MFI
B1 | 252 MFI

target: monkey DLL3 on CHO-K1-cyno DLL3 cells (cynomolgus monkey); assay: FACS, CHO-K1-cyno DLL3 cells, 0.00128 nM antibody

Binder | MFI
B2 | 276 MFI
B1 | 103 MFI

target: mouse DLL3 on CHO-K1-mDLL3 cells (mouse) (UniProt O88516); assay: FACS, CHO-K1-mDLL3 cells, 0.032 nM antibody

Binder | MFI
B2 | 185 MFI

target: human delta-like ligand 3 (DLL3) on SHP77 cells (human) (UniProt Q9NYJ7); assay: FACS on SHP77 cells
Sequence (Q9NYJ7 27-618, stated change not applied): as the sequence (Q9NYJ7 27-618) above

Binder | MFI at 0.00128 nM | MFI at 0.0064 nM | MFI at 0.032 nM | MFI at 0.16 nM | MFI at 0.8 nM | MFI at 4 nM | MFI at 20 nM | MFI at 100 nM
B2 | 199 MFI | 281 MFI | 528 MFI | 1050 MFI | 1330 MFI | 1500 MFI | 1620 MFI | 1870 MFI
B1 | 117 MFI | 117 MFI | 122 MFI | 133 MFI | 194 MFI | 330 MFI | 634 MFI | 974 MFI

target: DLL3 endogenously expressed on NCI-H82 cells (UniProt Q9NYJ7); assay: FACS on NCI-H82 cells; antibody 0.16 nM

Binder | MFI
B1 | 102

target: human DLL3 protein expressed on CHO-K1 recombinant cells (human DLL3 extracellular segment fused to EpCAM transmembrane and intracellular regions) (human) (UniProt Q9NYJ7); assay: FACS, CHO-K1 hDLL3 cells, 0.032 nM antibody

Binder | MFI
B2 | 1340 MFI
B1 | 235 MFI

target: monkey DLL3 on CHO-K1-cyno DLL3 cells (cynomolgus monkey); assay: FACS, CHO-K1-cyno DLL3 cells, 4 nM antibody

Binder | MFI
B2 | 8510 MFI
B1 | 12900 MFI

target: human DLL3 protein expressed on CHO-K1 recombinant cells (human DLL3 extracellular segment fused to EpCAM transmembrane and intracellular regions) (human) (UniProt Q9NYJ7); assay: FACS, CHO-K1 hDLL3 cells, 0.8 nM antibody

Binder | MFI
B2 | 11900 MFI
B1 | 2370 MFI

target: DLL3 endogenously expressed on NCI-H82 cells (UniProt Q9NYJ7); assay: FACS on NCI-H82 cells; antibody 0.00128 nM

Binder | MFI
B1 | 99

target: monkey DLL3 on CHO-K1-cyno DLL3 cells (cynomolgus monkey); assay: FACS, CHO-K1-cyno DLL3 cells, 100 nM antibody

Binder | MFI
B2 | 10500 MFI
B1 | 21600 MFI

target: human DLL3 protein expressed on CHO-K1 recombinant cells (human DLL3 extracellular segment fused to EpCAM transmembrane and intracellular regions) (human) (UniProt Q9NYJ7); assay: FACS, CHO-K1 hDLL3 cells, 0.16 nM antibody

Binder | MFI
B2 | 4700 MFI
B1 | 671 MFI

target: mouse DLL3 on CHO-K1-mDLL3 cells (mouse) (UniProt O88516); assay: FACS, CHO-K1-mDLL3 cells, 4 nM antibody

Binder | MFI
B2 | 577 MFI
